The target in the experiment is SH3-peptide-tagged TVMV-inducible HCV-based signal transducers. Briefly: cell-based or functional assay.

B1: SH3-H6-68-AP (protein)
chain: SGGSGAEYVRALFDFNGNDEEDLPFKKGDILRIRDKPEEQWWNAEDSEGKRGMIPVPYVEKYRPASASVSALIGGRGGSGGSGGSGGSGGSGGSSKALLKGVRDFNPISACVCLLENSSDGHSERLFGIGFGPYIIANQHLFRRNNGELTIKTMHGEFKVKNSTQLQMKPVEGRDIIVIKMAKDFPPFPQKLKFRQPTIKDRVCMVSTNFQQKSVSSLVSESSHIVHKEDTSFWQHWITTKDGQCGSPLVSIIDGNILGIHSLTHTTNGSNYFVEFPEKFVATYLDAADGWCKNWKFNADKISWGSFILWEDAPEDFMSGLVPRGVGREYVRFAPGSTHHHHHH
In the case of B1, the induction ratio came out at 20 fold.

Source of the values: patent US9791436.
